Test results published in patent US9605073B2, “Modulation of activity of neurotrophins” (H. Lundbeck, priority 2002, dated 2017).
Read-outs that look alike come from different tables or passages of the source.

Experiments:
[1] = biological target: T1, proNGF binding to Sortilin (Homo sapiens, UniProt Q99523); experiment: Inhibition of proNGF binding to immobilized Sortilin (BIAcore); conditions: prebound then coinjected, 51 fmol/mm^2 Sortilin
T1 construct: to 51 fmol/mm^2 purified Sortilin extracellular domain (lower panel); made in house; host or cells: Sortilin: stably transfected CHO cells; proNGF: E. coli
T1 sequence (Q99523 78-755 limits assumed): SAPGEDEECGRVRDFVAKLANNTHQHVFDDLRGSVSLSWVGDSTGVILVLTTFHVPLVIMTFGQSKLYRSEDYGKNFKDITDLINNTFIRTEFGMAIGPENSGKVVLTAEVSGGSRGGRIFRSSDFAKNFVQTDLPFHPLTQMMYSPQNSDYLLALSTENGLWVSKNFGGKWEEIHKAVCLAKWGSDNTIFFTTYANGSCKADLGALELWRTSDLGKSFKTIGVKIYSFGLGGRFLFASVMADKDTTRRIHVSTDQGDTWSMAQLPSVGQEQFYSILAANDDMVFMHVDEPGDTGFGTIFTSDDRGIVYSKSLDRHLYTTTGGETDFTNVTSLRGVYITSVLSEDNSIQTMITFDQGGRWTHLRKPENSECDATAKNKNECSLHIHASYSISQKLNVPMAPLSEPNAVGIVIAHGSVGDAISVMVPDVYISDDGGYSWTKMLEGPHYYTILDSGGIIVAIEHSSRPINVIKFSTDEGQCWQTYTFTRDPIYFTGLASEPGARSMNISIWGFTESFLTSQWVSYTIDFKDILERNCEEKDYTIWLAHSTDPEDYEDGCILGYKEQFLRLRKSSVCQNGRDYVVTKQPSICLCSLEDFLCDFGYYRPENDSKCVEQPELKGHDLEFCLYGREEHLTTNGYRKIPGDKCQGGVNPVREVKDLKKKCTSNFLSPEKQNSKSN
Protocol: FIG. 6: Inhibition of proNGF binding to immobilized Sortilin by RAP (receptor-associated protein), the propeptide of proNGF, and the Sortilin propeptide. The inhibitors were prebound to Sortilin followed by coinjection with 200 nM proNGF. […] Maximal proNGF binding is measured without preincubation with the respective inhibitors.

[2] = biological target: T2, Sortilin extracellular domain (Homo sapiens, UniProt Q99523); experiment: Surface plasmon resonance (BIAcore) binding to immobilized purified Sortilin extracellular domain
T2 construct: purified Sortilin extracellular domain (lower panel); made in house; host or cells: CHO cells (stably transfected)
T2 sequence (Q99523 78-755 limits assumed): T1 sequence (Q99523 78-755 limits assumed)
Protocol: (§1) FIG. 2: Characterization of NGF binding to p75, TrkA, and Sortilin as measured by surface plasmon resonance analysis (BIAcore). Binding of 50-500 nM NGF was measured to 91.5 fmol/mm^2 immobilized p75-IgG-Fc chimeric protein (upper panel), to 66 fmol/mm^2 immobilized TrkA-IgG-Fc (middle panel), and to 51 fmol/mm^2 purified Sortilin extracellular domain (lower panel).
(§2) Mature murine NGF was from Austral Biologicals (San Ramon, Calif.), recombinant human p75 neurotrophin receptor/Fc and human TrkA/Fc chimeras were from R&D systems (Oxon, UK). Human Sortilin was produced in stably transfected CHO-cells and purified as described elsewhere (Munck Petersen et al, EMBO J. (1999) 18:595-604).
as §1, with “3:” for “2:”, “proNGF” for “NGF”, “25-500” for “50-500”
as §1, with “4:” for “2:”, “of” for “of NGF”, “binding of the proNGF propeptide” for “binding”, “25-500” for “50-500”, “propeptide” for “NGF”
FIG. 7: Characterization of proBDNF and BDNF binding to purified Sortilin as measured by surface plasmon resonance (BIAcore). Rat proBDNF was produced in 293 cells as described in Lee, R., Kermani, P., Teng, K. K. & Hempstead, B. L. Regulation of cell survival by secreted proneurotrophins. Science 294, 1945-1948 (2001). and purified from the conditioned medium. Mature recombinant human BDNF was from Promega (#G1491) and the pro-domain of human BDNF fused to GST (glutathione S-transferase) was produced in E. coli and purified by glutathione-sepharose affinity chromatography. Binding of 5-500 nM proBDNF (upper panel), pro-domain of proBDNF (a GST-fusion protein, middle panel) or BDNF (lower panel) was measured to 94 fmol/mm2 immobilized purified Sortilin extracellular domain. The experiment was carried out essentially as described for FIGS. 2-4.
(§3) All the data provided in FIG. 2-7 are obtained by surface plasmon resonance measurements (BIAcore analysis)

[3] = biological target: T3, p75 neurotrophin receptor/Fc (Homo sapiens, UniProt P08138); experiment: Surface plasmon resonance (BIAcore) binding to immobilized p75-IgG-Fc chimeric protein; conditions: 91.5 fmol/mm^2 immobilized p75-IgG-Fc; for Kd: BIAcore
T3 construct: purchased R&D systems (Oxon, UK)
Protocol: as §1, §2
as §1, with “3:” for “2:”, “proNGF” for “NGF”, “25-500” for “50-500”
as §1, with “4:” for “2:”, “of” for “of NGF”, “binding of the proNGF propeptide” for “binding”, “25-500” for “50-500”, “propeptide” for “NGF”
as §3

TrkA/Fc = experiment: Surface plasmon resonance (BIAcore) binding to immobilized TrkA-IgG-Fc; design: species or system human; conditions: 66 fmol/mm^2 immobilized TrkA-IgG-Fc; for Kd: BIAcore
Protocol: as §1, §2
as §1, with “3:” for “2:”, “proNGF” for “NGF”, “25-500” for “50-500”
as §1, with “4:” for “2:”, “of” for “of NGF”, “binding of the proNGF propeptide” for “binding”, “25-500” for “50-500”, “propeptide” for “NGF”
as §3

[4] = 5-500 nM ligand, 94 fmol/mm2 immobilized purified Sortilin extracellular domain, read-out: Kd for ligand binding to Sortilin
[5] = 51 fmol/mm^2 purified Sortilin extracellular domain, BIAcore, read-out: Kd for binding to Sortilin

T3 sequence (P08138 with tags, fused parts or gaps limits assumed): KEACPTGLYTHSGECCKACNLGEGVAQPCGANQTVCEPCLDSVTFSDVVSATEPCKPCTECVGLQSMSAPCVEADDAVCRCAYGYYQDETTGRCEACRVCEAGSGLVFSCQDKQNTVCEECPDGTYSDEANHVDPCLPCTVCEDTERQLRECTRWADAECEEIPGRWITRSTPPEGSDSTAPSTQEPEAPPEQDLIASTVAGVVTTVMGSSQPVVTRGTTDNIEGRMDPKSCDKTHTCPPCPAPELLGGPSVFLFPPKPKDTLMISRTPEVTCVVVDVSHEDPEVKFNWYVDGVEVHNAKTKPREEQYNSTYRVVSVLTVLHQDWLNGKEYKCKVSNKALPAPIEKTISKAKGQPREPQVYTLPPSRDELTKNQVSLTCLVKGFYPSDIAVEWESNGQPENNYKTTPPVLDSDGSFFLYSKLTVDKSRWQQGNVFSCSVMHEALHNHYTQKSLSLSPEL

Q: With “Sortilin propeptide: Propeptide of Sortilin; SEQ ID NO: 1 amino acid residue 34-77, binds the processed receptor (QDRLDAPPPPAAPLPRWSGPIGVSWGLRAAAAGGAFPRGGRWRR; listed as Homo sapiens)” as the molecule, how does the “inhibition of binding of 200 nM proNGF to immobilized Sortilin” value (“inhibition of binding of 200 nM proNGF” for short) ([1]; inhibitor 5 μM) read?
A: ~65%

Q: “mature BDNF: Mature recombinant human BDNF from Promega (#G1491)” was tested. Which Kd [2, 4] did it give?
A: ~40 nM

Q: And the Kd ([2]; other preparations of mature BDNF, read-out: Kd for ligand binding to Sortilin)?
A: 10 nM

Q: What does the source list for “proNGF: Human recombinant proNGF produced and purified in E. coli”?
A: Kd [3]: ~12 nM; Kd (TrkA/Fc): ~15 nM; Kd [2, 5]: ~5 nM

B1: proNGF propeptide: Human NGF-propeptide expressed in E. Coli; SEQ ID NO: 6 amino acid residue 19-121 (protein, listed as Homo sapiens)
chain: EPHSESNVPAGHTIPQVHWTKLQHSLDTALRRARSAPAAAIAARVAGQTRNITVDPRLFKKRRLRSPRVLFSTQPPREAADTQDLDFEVGGAAPFNRTHRSKR
Q: With B1 as the molecule, how does the “binding to p75” value ([3]; 25-500 nM propeptide) read?
A: no detectable binding

Q: And the “binding to TrkA” value (TrkA/Fc; 25-500 nM propeptide)?
A: no detectable binding

Q: And the Kd [2, 5]?
A: ~87 nM

Q: And the “inhibition of binding of 200 nM proNGF” value ([1]; inhibitor 5 μM)?
A: ~85%

B2: GST-pro-domain of proBDNF: Pro-domain of human BDNF fused to GST, produced in E. coli (protein)
chain: APMKEANIRGQGGLAYPGVRTHGTLESVNGPKAGSGLTSLADTFEHVIEELLDEDQKVRPNEENNKDADLYTSRVMLSSQVPLEPPLLFLLEEYKNYLDAANMSMRVRR
modifications: left off: a dimerising Fc or GST
notes: Pro-domain of human BDNF fused to GST, produced in E. coli
Q: Which Kd [2, 4] does the source give for B2 here?
A: ~58 nM

B3: NGF: Mature murine NGF from Austral Biologicals (protein)
chain: SSTHPVFHMGEFSVCDSVSVWVGDKTTATDIKGKEVTVLAEVNINNSVFRQYFFETKCRASNPVESGCRGIDSKHWNSYCTTTHTFVKALTTDEKQAAWRFIRIDTACVCVLSRKATRRG
Q: For B3, which Kd [3] is on record?
A: ~1 nM

Q: And the Kd (TrkA/Fc)?
A: ~2 nM

Q: What about the Kd [2, 5] of the same molecule?
A: ~87 nM

B4: RAP: Receptor-associated protein, cellular protein of about 300 amino acids, SEQ ID NO: 12 (protein, listed as Homo sapiens)
chain: MAPRRVRSFLRGLPALLLLLLFLGPWPAASHGGKYSREKNQPKPSPKRESGEEFRMEKLNQLWEKAQRLHLPPVRLAELHADLKIQERDELAWKKLKLDGLDEDGEKEARLIRNLNVILAKYGLDGKKDARQVTSNSLSGTQEDGLDDPRLEKLWHKAKTSGKFSGEELDKLWREFLHHKEKVHEYNVLLETLSRTEEIHENVISPSDLSDIKGSVLHSRHTELKEKLRSINQGLDRLRRVSHQGYSTEAEFEEPRVIDLWDLAQSANLTDKELEAFREELKHFEAKIEKHNHYQKQLEIAHEKLRHAESVGDGERVSRSREKHALLEGRTKELGYTVKKHLQDLSGRISRARHNEL
Q: For B4, which “inhibition of binding of 200 nM proNGF” value ([1]; inhibitor 10 μM) is on record?
A: ~65%

B5: proBDNF: Rat proBDNF produced in 293 cells and purified from the conditioned medium (protein)
chain: APMKEANVHGQGNLAYPAVRTHGTLESVNGPRAGSRGLTTTSLADTFEHVIEELLDEDQKVRPNEENHKDADLYTSRVMLSSQVPLEPPLLFLLEEYKNYLDAANMSMRVRRHSDPARRGELSVCDSISEWVTAADKKTAVDMSGGTVTVLEKVPVSKGQLKQYFYETKCNPMGYTKEGCRGIDKRHWNSQCRTTQSYVRALTMDSKKRIGWRFIRIDTSCVCTLTIKRGR
Q: For B5, which Kd [2, 4] is on record?
A: ~3 nM
